Measurements reported in patent US10508147B2, “Anti-nodal antibodies and methods of using same” (ANN AND ROBERT H. LURIE CHILDREN'S HOSPITAL OF CHICAGO, priority 2014, dated 2019).
Values joined by “and” are separate entries in the source; they are usually repeats but may differ in a detail not shown here. Equal values may be shown once.

Target: T1, rhNodal (Homo sapiens, UniProt Q96S42)
T1 construct: E. coli derived His238 Leu347, with an N-terminal Met; purchased R&D System 3218ND; host or cells: E. coli
T1 sequence (Q96S42 238-347): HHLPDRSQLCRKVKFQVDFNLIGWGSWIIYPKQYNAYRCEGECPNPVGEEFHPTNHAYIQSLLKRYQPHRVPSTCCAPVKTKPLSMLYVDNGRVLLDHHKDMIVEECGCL
Assay: SPR direct binding of mAbs and 3D1 fragments to rhNodal immobilized on a CM5 sensor chip
Method: Antibodies (mAbs) that selectively recognized wild type human Nodal (E49E50) were further screened in order to identify mAbs that bound full length Nodal. Surface plasmon resonance (SPR) biosensor direct binding assay was used. Recombinant human Nodal protein (rhNodal, E. coli derived His238 Leu347, with an N-terminal Met Accession # Q96S42, cat. num 3218ND, R&D System) was immobilized on a CM5 sensor chip.
SPR analyses were performed on a Biacore 3000 instrument from GE Healthcare, using CM5 sensor chips and certified HBS buffer (20 mM HEPES, 0.15 M NaCl, pH 7.4, P20, 0.005%). Protein immobilization was carried out following the canonical amine coupling chemistry using the surface immobilization wizard procedure, operating at 5 μL/min. Channels were activated with EDC/NHS for 7 min; for the binding assays of purified mAbs to Nodal protein, rhNodal, opportunely diluted in the pre-selected sodium acetate buffer pH 4.5, was coupled until a 4000 RU level was achieved. Residual reactive groups on the sensor chip surface were deactivated by addition of 1.0 M ethanolamine hydrochloride, pH 8.5. Antibody binding was tested at 20 μL/min injecting solutions of 3D1 (60 μL) in HBS-EP at increasing concentrations (6-100 nM). A 10 mM NaOH solution was used to regenerate the chip surface.
After the single-dose screening, dose-dependent binding analyses were carried out with the two antibodies, 3D1 and 5F10, able to bind the full-length protein. Binding of 3D1 was carried out at concentrations ranging between 6 and 100 nM. For 5F10 higher concentrations were required (100, 250, 500 and 750 nM). Dissociations were monitored for at least 500 s. To carry out the mapping of the 3D1 epitope, the whole antibody was immobilized at 5 μg/mL in 10 mM NaAc buffer pH 5 at a flow rate of 5 μL/min by standard amine coupling chemistry on a CM5 sensor chip. The immobilization level reached with the mAb was about 5350 RU. On another channel of the same sensor chip, the 3D1 Fab′ was immobilized at 10 μg/mL in 10 mM NaAc buffer pH 4.5 at a flow rate of 5 μL/min, following the standard amine coupling chemistry. The amount of immobilized Fab′ was about 2570 RU. Residual reactive groups were deactivated by 1M ethanolamine hydrochloride, pH 8.5. The blank channel was prepared as already described. Real-time binding analyses were performed at a flow rate of 20 μL/min, using HBS-EP buffer, injecting a constant sample volume of 60 μL. Peptides opportunely diluted in HBS-EP buffer were injected at the following concentrations: 0.5, 1, 2.5, 5, 10, and 20 μM. Dissociations were monitored for at least 500 s; the regeneration solution was 5 mM NaOH.
For each analysis, experimental sensorgrams were aligned, subtracted of blank signals and overlapped. All mathematical manipulations and fitting were performed using the BiaEvaluation software, vers. 4.1 from GE Healthcare. All experimental data gave optimal fittings when processed assuming a 1:1 Langmuir binding interaction.
SPR analyses were performed at 25° C. using HBS as running buffer. Protein immobilization was carried out following the canonical amine coupling chemistry using the surface immobilization wizard procedure, operating at 5 μL/min. Channels were activated with EDC/NHS [N-(3-dimethylaminopropyl)-N′-ethylcarbodiimide hydrochloride(EDC)/[…](NHS) for 7 min; for the binding assays, rhNodal, appropriately diluted in the pre-selected sodium acetate buffer pH 4.5, was coupled until a 4000 RU level was achieved. Residual reactive groups on the sensor chip surface were deactivated by addition of 1.0 M ethanolamine hydrochloride, pH 8.5. Antibody binding was tested at 20 μL/min injecting solutions of 3D1 (60 μL) in HBS at increasing concentrations (6.0 nM-100 nM). A 10 mM NaOH solution was used to regenerate the chip surface. […]

average kd: 0.000655 s⁻¹
Kd (Average over concentrations): 1.42 nM
ka (Average over concentrations): 695000 M⁻¹ s⁻¹
kd (Average over concentrations): 0.000655 s⁻¹
Kd (Example 1, hNodal immobilized on CM5 chip, antibody injected): ~1.3 nM
Kd (Examples 2 and 4, running text, averaged over dose-dependent runs): 1.42 nM and 1.4 nM
Kd (analyte injected at 6 nM): 0.491 nM
ka (analyte injected at 6 nM): 1.28e+06 M⁻¹ s⁻¹
kd (analyte injected at 6 nM): 0.000629 s⁻¹
Kd (analyte injected at 12 nM): 0.698 nM
ka (analyte injected at 12 nM): 979000 M⁻¹ s⁻¹
kd (analyte injected at 12 nM): 0.000683 s⁻¹
Kd (analyte injected at 25 nM): 0.968 nM
ka (analyte injected at 25 nM): 642000 M⁻¹ s⁻¹
kd (analyte injected at 25 nM): 0.000622 s⁻¹
Kd (analyte injected at 50 nM): 1.93 nM
ka (analyte injected at 50 nM): 361000 M⁻¹ s⁻¹
kd (analyte injected at 50 nM): 0.000697 s⁻¹
Kd (analyte injected at 100 nM): 3.03 nM
ka (analyte injected at 100 nM): 212000 M⁻¹ s⁻¹
kd (analyte injected at 100 nM): 0.000644 s⁻¹
B1: 3D1: mouse monoclonal anti-Nodal antibody raised against hNodal(44-67); light chain SEQ ID NO:1, heavy chains SEQ ID NO:2 and 3 (protein)
light: DIKMTQSPASLSASVGETVTITCRASGNIHNYLAWYQQKQGKSPQLLVYNAKTLADGVPSRFSGSGSGTQYSLKINSLQPEDFGSYYCQHFWSTPHVRCWDQAGTETEAW
heavy 1: VKLVESGGGLVKPGGSLKLSCAASGFTFSSYAMSWVRQTPEKRLEWVASISSGGCTYYPDSVKGRFTISRDNARNILYLQMSSLRSEDTAMYYCARGSMITADGNSLLLCYGLLGSRNLXHR
heavy 2: VKLVESGGGLVQPGGSMKLSCVASGFTFRNYWMSWVRQSPEKGLEWVAEIRLKSDNYAARYAESVKGKFTISRDDSKSRLYLQMNSLRAEDTGIYYCTGIRRFAYWGQGTL
modifications: not fully specified; (120)..(120) Xaa can be any naturally occurring amino acid
ability to bind the full-length rhNodal protein (single-dose SPR screening, mAbs at 100 nM): able to bind the full-length rhNodal protein
